In paper PMC10238842 (Molecular Therapy. Methods & Clinical Development, 2023):

Target: the molecule itself
Experiment: native MS

Protein | stoichiometry N | binding result
AAV1 VP3 (VP3M, VP3 203-736) of the AAV1-VP3-only capsid (natural protein, adeno-associated virus serotype 1 (AAV1), UniProt Q9WBP8 204-736, looked up, N-terminal methionine M203 removed; A204 acetylated at the N terminus) ASGGGAPMADNNEGADGVGNASGNWHCDSTWLGDRVITTSTRTWALPTYNNHLYKQISSASTGASNDNHYFGYSTPWGYFDFNRFHCHFSPRDWQRLINNNWGFRPKRLNFKLFNIQVKEVTTNDGVTTIANNLTSTVQVFSDSEYQLPYVLGSAHQGCLPPFPADVFMIPQYGYLTLNNGSQAVGRSSFYCLEYFPSQMLRTGNNFTFSYTFEEVPFHSSYAHSQSLDRLMNPLIDQYLYYLNRTQNQSGSAQNKDLLFSRGSPAGMSVQPKNWLPGPCYRQQRVSKTKTDNNNSNFTWTGASKYNLNGRESIINPGTAMASHKDDEDKFFPMSGVMIFGKESAGASNTALDNVMITDEEEIKATNPVATERFGTVAVNFQSSSTDPATGDVHAMGALPGMVWQDRDVYLQGPIWAKIPHTDGHFHPSPLMGGFGLKNPPPQILIKNTPVPANPPAEFSATKFASFITQYSTGQVSVEIEWELQKENSKRWNPEVQYTSNYAKSANVDFTVDNNGLYTEPRPIGTRYLTRPL | 60 | 
AAV1-M211V-VP3 (VP3 of the AAV1-M211V-VP3-only capsid) (natural protein, adeno-associated virus serotype 1 (AAV1), UniProt Q9WBP8 204-736, looked up, N-terminal acetylation (NTA)) ASGGGAPVADNNEGADGVGNASGNWHCDSTWLGDRVITTSTRTWALPTYNNHLYKQISSASTGASNDNHYFGYSTPWGYFDFNRFHCHFSPRDWQRLINNNWGFRPKRLNFKLFNIQVKEVTTNDGVTTIANNLTSTVQVFSDSEYQLPYVLGSAHQGCLPPFPADVFMIPQYGYLTLNNGSQAVGRSSFYCLEYFPSQMLRTGNNFTFSYTFEEVPFHSSYAHSQSLDRLMNPLIDQYLYYLNRTQNQSGSAQNKDLLFSRGSPAGMSVQPKNWLPGPCYRQQRVSKTKTDNNNSNFTWTGASKYNLNGRESIINPGTAMASHKDDEDKFFPMSGVMIFGKESAGASNTALDNVMITDEEEIKATNPVATERFGTVAVNFQSSSTDPATGDVHAMGALPGMVWQDRDVYLQGPIWAKIPHTDGHFHPSPLMGGFGLKNPPPQILIKNTPVPANPPAEFSATKFASFITQYSTGQVSVEIEWELQKENSKRWNPEVQYTSNYAKSANVDFTVDNNGLYTEPRPIGTRYLTRPL |  | binds
